Positions count from the first letter of the chain named. “And” between values parts separate entries of the source, which are not always exact repeats. Identical values can stand only once.
Legend:
[1] = target: SNAP-GAL2R Y86^2.65A (human) (UniProt O43603)
SNAP-GAL2R L255^6.54A = target: T1, SNAP-GAL2R L255^6.54A (human, UniProt O43603 1-387, L255^6.54A, Lumi4-Tb on the SNAP tag)
T1 construct: also called L255A; source: HEK293, transfected, on cells; not shown: SNAP tag, N-terminal, kept
T1 sequence (looked up): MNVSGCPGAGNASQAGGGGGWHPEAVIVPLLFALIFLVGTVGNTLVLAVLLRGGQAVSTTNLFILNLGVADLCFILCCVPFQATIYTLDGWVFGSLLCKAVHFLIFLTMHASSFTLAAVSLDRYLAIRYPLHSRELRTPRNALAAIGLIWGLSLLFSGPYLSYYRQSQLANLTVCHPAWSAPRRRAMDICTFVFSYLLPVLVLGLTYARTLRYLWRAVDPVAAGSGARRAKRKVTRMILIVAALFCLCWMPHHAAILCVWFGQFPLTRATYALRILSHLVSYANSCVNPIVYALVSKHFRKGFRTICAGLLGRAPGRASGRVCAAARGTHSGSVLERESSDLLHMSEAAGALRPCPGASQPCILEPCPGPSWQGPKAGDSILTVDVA

[2] = target: SNAP-GAL2R I85^2.64A (human) (UniProt O43603)
SNAP-GAL2R T267^7.28A = target: T2, SNAP-GAL2R T267^7.28A (human, UniProt O43603 1-387, T267^7.28A, Lumi4-Tb on the SNAP tag)
T2 construct: also called T267A; source: HEK293, transfected, on cells; not shown: SNAP tag, N-terminal, kept
T2 sequence (looked up): T1 sequence (looked up) with A255L, T267A

[3] = target: SNAP-GAL2R Y271^7.32A (human) (UniProt O43603)
SNAP-GAL2R R184^5.35A = target: T3, SNAP-GAL2R R184^5.35A (human, UniProt O43603 1-387, R184^5.35A, Lumi4-Tb on the SNAP tag)
T3 construct: also called R184A; source: HEK293, transfected, on cells; not shown: SNAP tag, N-terminal, kept
T3 sequence (looked up): T1 sequence (looked up) with R184A, A255L

SNAP-GAL2R A170^ECL2S [4] = target: T4, SNAP-GAL2R A170^ECL2S (human, UniProt O43603 1-387, A170^ECL2S, Lumi4-Tb on the SNAP tag)
T4 construct: also called A170S; source: HEK293, transfected, on cells; not shown: SNAP tag, N-terminal, kept
T4 sequence (looked up): T1 sequence (looked up) with A170S, A255L

SNAP-GAL2R L172^ECL2A [5] = target: T5, SNAP-GAL2R L172^ECL2A (human, UniProt O43603 1-387, L172^ECL2A, Lumi4-Tb on the SNAP tag)
T5 construct: also called L172A; source: HEK293, transfected, on cells; not shown: SNAP tag, N-terminal, kept
T5 sequence (looked up): T1 sequence (looked up) with L172A, A255L

[6] = target: SNAP-GAL2R L266^ECL3A (human) (UniProt O43603)
[7] = target: SNAP-GAL2R F264^ECL3A (human) (UniProt O43603)
SNAP-GAL2R V259^6.58A [8] = target: T6, SNAP-GAL2R V259^6.58A (human, UniProt O43603 1-387, V259^6.58A, Lumi4-Tb on the SNAP tag)
T6 construct: also called V259A; source: HEK293, transfected, on cells; not shown: SNAP tag, N-terminal, kept
T6 sequence (looked up): T1 sequence (looked up) with A255L, V259A

[9] = target: SNAP-GAL2R Q82^2.61A (human) (UniProt O43603)
SNAP-GAL2R L169^ECL2A [10] = target: T7, SNAP-GAL2R L169^ECL2A (human, UniProt O43603 1-387, L169^ECL2A, Lumi4-Tb on the SNAP tag)
T7 construct: also called L169A; source: HEK293, transfected, on cells; not shown: SNAP tag, N-terminal, kept
T7 sequence (looked up): T1 sequence (looked up) with L169A, A255L

[11] = target: SNAP-GAL2R Y271^7.32A (human) (UniProt O43603); remark: listed apart in the source
SNAP-GAL2R A170^ECL2S [12] = target: T4, SNAP-GAL2R A170^ECL2S; remark: listed apart in the source
SNAP-GAL2R I256^6.55A = target: T8, SNAP-GAL2R I256^6.55A (human, UniProt O43603 1-387, I256^6.55A, Lumi4-Tb on the SNAP tag)
T8 construct: also called I256A; source: HEK293, transfected, on cells; not shown: SNAP tag, N-terminal, kept
T8 sequence (looked up): T1 sequence (looked up) with A255L, I256A

SNAP-GAL2R L172^ECL2A [13] = target: T5, SNAP-GAL2R L172^ECL2A; remark: listed apart in the source
[14] = target: SNAP-GAL2R L266^ECL3A (human) (UniProt O43603); remark: listed apart in the source
[15] = target: SNAP-GAL2R F264^ECL3A (human) (UniProt O43603); remark: listed apart in the source
SNAP-GAL2R V259^6.58A [16] = target: T6, SNAP-GAL2R V259^6.58A; remark: listed apart in the source
SNAP-GAL2R L169^ECL2A [17] = target: T7, SNAP-GAL2R L169^ECL2A; remark: listed apart in the source

Substance: galanin (full length, unlabeled) (peptide)
- calcium assay EC50 (galanin; HEK293/Gα16 cells) [1]: 3.23 µM and 2.21 µM
- calcium assay EC50 (galanin; HEK293/Gα16 cells) (SNAP-GAL2R L255^6.54A): 0.153 µM and 0.293 µM
- calcium assay EC50 (galanin; HEK293/Gα16 cells) [2]: 5.21 µM and 4.44 µM and 1.38 µM
- calcium assay EC50 (galanin; HEK293/Gα16 cells) (SNAP-GAL2R T267^7.28A): 3.15 µM and 2.33 µM and 1.26 µM
- calcium assay EC50 (galanin; HEK293/Gα16 cells) [3]: 0.515 µM and 0.678 µM and 0.969 µM
- calcium assay EC50 (galanin; HEK293/Gα16 cells) (SNAP-GAL2R R184^5.35A): 0.138 µM and 0.115 µM and 0.058 µM
- calcium assay EC50 (galanin; HEK293/Gα16 cells) (SNAP-GAL2R A170^ECL2S [4]): 0.01 µM and 0.00808 µM and 0.0124 µM
- calcium assay EC50 (galanin; HEK293/Gα16 cells) (SNAP-GAL2R L172^ECL2A [5]): 0.059 µM and 0.0717 µM and 0.0554 µM
- calcium assay EC50 (galanin; HEK293/Gα16 cells) [6]: 27.9 µM and 7.14 µM
- calcium assay EC50 (galanin; HEK293/Gα16 cells) [7]: 1.76 µM and 2.39 µM and 3.59 µM
- calcium assay EC50 (galanin; HEK293/Gα16 cells) (SNAP-GAL2R V259^6.58A [8]): 0.29 µM and 0.275 µM and 0.205 µM
- calcium assay EC50 (galanin; HEK293/Gα16 cells) [9]: 4.68 µM and 4.33 µM and 2.98 µM
- calcium assay EC50 (galanin; HEK293/Gα16 cells) (SNAP-GAL2R L169^ECL2A [10]): 0.0935 µM and 0.0825 µM and 0.0225 µM

Substance: spexin (mature, 14 amino acids) (peptide)
- calcium assay EC50 (spexin) [11]: 5.96 µM and 1.58 µM and 0.752 µM
- calcium assay EC50 (spexin) (SNAP-GAL2R A170^ECL2S [12]): 95.4 nM and 151 nM (2×)
- calcium assay EC50 (spexin) (SNAP-GAL2R I256^6.55A): 0.674 µM and 0.438 µM and 0.924 µM
- calcium assay EC50 (spexin) (SNAP-GAL2R L172^ECL2A [13]): 3.12 µM and 10.8 µM and 12.1 µM
- calcium assay EC50 (spexin) [14]: 25.1 µM and 15.3 µM and 12 µM
- calcium assay EC50 (spexin) [15]: > 100 µM
- calcium assay EC50 (spexin) (SNAP-GAL2R V259^6.58A [16]): 1.33 µM and 6.62 µM and 6.15 µM
- calcium assay EC50 (spexin) (SNAP-GAL2R L169^ECL2A [17]): 7.17 µM and 5.14 µM and 1.83 µM
